Tests used:
Damb (DAMB) = target: T1, Damb (DAMB) (Drosophila melanogaster, UniProt Q24563); assay: real-time BRET G protein activation assay, HEK293T/[…] cells; format: cell-based
T1 sequence (Q24563 1-539): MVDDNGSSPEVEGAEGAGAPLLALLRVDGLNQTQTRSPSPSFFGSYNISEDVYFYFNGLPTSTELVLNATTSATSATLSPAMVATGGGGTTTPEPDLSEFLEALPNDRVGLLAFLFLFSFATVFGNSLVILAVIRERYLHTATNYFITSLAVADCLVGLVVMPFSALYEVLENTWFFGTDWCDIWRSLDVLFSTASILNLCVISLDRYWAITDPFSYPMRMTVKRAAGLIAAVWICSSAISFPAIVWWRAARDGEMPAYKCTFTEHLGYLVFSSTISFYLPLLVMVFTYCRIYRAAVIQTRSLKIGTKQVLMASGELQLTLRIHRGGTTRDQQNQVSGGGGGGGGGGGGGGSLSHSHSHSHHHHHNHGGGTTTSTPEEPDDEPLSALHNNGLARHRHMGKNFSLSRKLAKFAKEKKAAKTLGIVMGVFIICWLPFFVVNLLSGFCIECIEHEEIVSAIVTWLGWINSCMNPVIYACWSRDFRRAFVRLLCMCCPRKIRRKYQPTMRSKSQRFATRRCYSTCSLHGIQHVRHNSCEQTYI

[1] = target: Drosophila Gαq isoform G (Drosophila)
[2] = target: Drosophila Gαs isoform A (Drosophila)

Row | Molecule | EC50 (Damb (DAMB)) [nM] | rate of G protein activation (BRET, 100 μM DA, HEK293T/17 cells) [1] [s⁻¹] | rate of G protein activation (BRET, 100 μM DA, HEK293T/17 cells) [2] [s⁻¹]
1 | NCCc1ccc(O)c(O)c1 [dopamine] | 56.7 ± 7.7 |  | 
2 | Damb (DopAmine receptor expressed in Mushroom Bodies) (receptor) MVDDNGSSPEVEGAEGAGAPLLALLRVDGLNQTQTRSPSPSFFGSYNISEDVYFYFNGLPTSTELVLNATTSATSATLSPAMVATGGGGTTTPEPDLSEFLEALPNDRVGLLAFLFLFSFATVFGNSLVILAVIRERYLHTATNYFITSLAVADCLVGLVVMPFSALYEVLENTWFFGTDWCDIWRSLDVLFSTASILNLCVISLDRYWAITDPFSYPMRMTVKRAAGLIAAVWICSSAISFPAIVWWRAARDGEMPAYKCTFTEHLGYLVFSSTISFYLPLLVMVFTYCRIYRAAVIQTRSLKIGTKQVLMASGELQLTLRIHRGGTTRDQQNQVSGGGGGGGGGGGGGGSLSHSHSHSHHHHHNHGGGTTTSTPEEPDDEPLSALHNNGLARHRHMGKNFSLSRKLAKFAKEKKAAKTLGIVMGVFIICWLPFFVVNLLSGFCIECIEHEEIVSAIVTWLGWINSCMNPVIYACWSRDFRRAFVRLLCMCCPRKIRRKYQPTMRSKSQRFATRRCYSTCSLHGIQHVRHNSCEQTYI |  | 2.71 | 0.46

Reference: article PMC6168074 (Cell reports, 2017)
